In US9956304 (GEORGIA STATE UNIVERSITY RESEARCH FOUNDATION, dated 2018):

Tests used:
[1] = target: T1, gastrin-releasing peptide receptor (GRPR) (UniProt P30550 1-384, limits assumed); test: Scatchard plot experiments, GRPR on cancer cell lines
T1 construct: whole, on cells; Endogenous receptor on PC3 and H441 cells, xenograft tumors or PC3 cell lysate; the cell lines are human; also called GRP receptor

[2] = target: T1, gastrin-releasing peptide receptor …; test: Scatchard plot from absorbance-based assay on wells of PC3 cell lysate; Kd of this variant not given

T1 sequence (P30550 whole entry): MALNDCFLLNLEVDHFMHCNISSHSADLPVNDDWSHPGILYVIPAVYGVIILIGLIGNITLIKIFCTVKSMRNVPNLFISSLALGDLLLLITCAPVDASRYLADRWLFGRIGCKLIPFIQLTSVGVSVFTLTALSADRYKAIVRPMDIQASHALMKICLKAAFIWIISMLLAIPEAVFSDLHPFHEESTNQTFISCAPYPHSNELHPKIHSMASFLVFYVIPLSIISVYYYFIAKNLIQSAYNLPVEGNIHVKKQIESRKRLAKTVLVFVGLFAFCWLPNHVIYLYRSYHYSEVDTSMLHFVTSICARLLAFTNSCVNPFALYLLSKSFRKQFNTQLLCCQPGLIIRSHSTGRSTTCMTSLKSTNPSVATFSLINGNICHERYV

B1: ProCA1.B10 (designed binder)
chain: RDSGTVWGALGHGIELNIPNFQMTDDIDEVRWERGSTLVAEFKRKMKPFLKSGGSGGGNQWAVGHLMGGSGGAFEIDANGDLDIKNLTRDDSGTYNVTVYSTNGTRILNKALDLRILE
Question: Does B1 bind [1]?
Answer: binds

B2: ProCA1.G10 (designed binder)
chain: RDSGTVWGALGHGIELNIPNFQMTDDIDEVRWERGSTLVAEFKRKMKPFLKSGGSGGGNHWAVGHLMGGSGGAFEIDANGDLDIKNLTRDDSGTYNVTVYSTNGTRILNKALDLRILE
Question: Does B2 bind [2]?
Answer: binds
